# Data: publication PMC4830570, “CD36 Differently Regulates Macrophage Responses to Smooth and Rough Lipopolysaccharide” (PLoS ONE, 2016)
# B1: recombinant mouse CD14 tagged with the Fc fragment of human IgG1 (Fc fusion, UniProt P10810 16-336, looked up)
# chain: SPAPPEPCELDEESCSCNFSDPKPDWSSAFNCLGAADVELYGGGRSLEYLLKRVDTEADLGQFTDIIKSLSLKRLTVRAARIPSRILFGALRVLGISGLQELTLENLEVTGTAPPPLLEATGPDLNILNLRNVSWATRDAWLAELQQWLKPGLKVLSIAQAHSLNFSCEQVRVFPALSTLDLSDNPELGERGLISALCPLKFPTLQVLALRNAGMETPSGVCSALAAARVQLQGLDLSHNSLRDAAGAPSCDWPSQLNSLNLSFTGLKQVPKGLPAKLSVLDLSYNRLDRNPSPDELPQVGNLSLKGNPFLDSESHSEKFN
# notes: CD14, mouse, recombinant soluble receptor from R&D Systems; also called rCD14; source: bought: R&D Systems
# Assays:
# [1] = biological target: T1, CD36 on the surface of mouse peritoneal exudate macrophages (mouse (endogenous in peritoneal exudate …, UniProt Q08857 1-472)); test: cellular ELISA; rCD14 with 1 μg/ml S-LPS on adherent PEMs, incubation on ice (0°C); bound rCD14 detected with HRP-anti-Fc; settings: one partner purified
# T1 construct: CD36, mouse, endogenous on the surface of peritoneal exudate macrophages; also called CD36 on PEMs; endogenous CD36; source: endogenous, on adherent thioglycollate-elicited peritoneal exudate macrophages of C57BL/6 mice
# [2] = biological target: T1, CD36 on the surface of mouse peritoneal …; test: cellular ELISA; 5 μg/ml rCD14 with 1 μg/ml S-LPS on adherent PEMs, 50 min at 37°C in FCS-RPMI; bound rCD14 detected with HRP-anti-Fc; settings: one partner purified
# T1 sequence (Q08857 whole entry): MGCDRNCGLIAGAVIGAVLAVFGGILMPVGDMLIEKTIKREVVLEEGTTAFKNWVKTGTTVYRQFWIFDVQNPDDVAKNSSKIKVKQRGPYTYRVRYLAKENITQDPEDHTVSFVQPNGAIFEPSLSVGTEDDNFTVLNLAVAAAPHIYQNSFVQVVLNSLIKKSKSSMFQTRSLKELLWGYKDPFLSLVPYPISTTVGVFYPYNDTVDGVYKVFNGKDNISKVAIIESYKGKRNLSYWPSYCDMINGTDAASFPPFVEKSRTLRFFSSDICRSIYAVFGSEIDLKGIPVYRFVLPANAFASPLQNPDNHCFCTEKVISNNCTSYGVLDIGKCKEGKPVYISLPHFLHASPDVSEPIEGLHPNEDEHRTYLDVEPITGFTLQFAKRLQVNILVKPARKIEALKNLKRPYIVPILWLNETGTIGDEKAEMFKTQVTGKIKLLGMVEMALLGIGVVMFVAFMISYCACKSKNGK
binder,measurement,setting,value
B1,fold higher binding on ice than at 37°C,[1],~2 fold
same,fold increase of binding with S-LPS over binding without LPS,[2],> 25 fold
